Experimental data from patent US20240024477A1.

Target: HLA-E bound RL9 presented on cells with their own HLA-E (RL9 pulsed autologous B cells (human; HIV-1) (UniProt P13747)
Assay: cell-based or functional assay

irrelevant TCR specific for HLAA*0201-NY-ESO-1157-165 (…) (IG4), transduced into CD8 T cells
reduction of % p24+ cells, HIV-1 NL4.3-infected primary CD4+ T cells, E:T 5:1: 23.5%
